Laboratory results taken from patent US6932973B2, “Peptides which stimulate the expression of the cytokines of inflammation and promote tissue regeneration” (Centre National de la Recherche Scientifique—CNRS, priority 1999, dated 2005).
“Also recorded” adds a separate entry of the source. Where two headings read alike, the source gives them in different places.

How the values were obtained:
IL-6 = assay: Expression of IL-6 by PBMCs (ELISA); format: cell-based, human
Description: (§1) Quantitative determination of these cytokines was performed using an ELISA test from R&D.
Quantitative determination of these cytokines was performed after 7 days of incubation using an ELISA test from R&D.
(§2) The cells were isolated from peripheral blood of normal subjects (blood donors) and collected in a Vacutainer tube containing EDTA. Mononucleated cells were separated by ficoll gradient, counted and adjusted to 10^6 per ml. The cells were incubated for 3 or 7 days at 37° C. in humid atmosphere with 5% CO2 in the presence of variable concentrations of HARP ranging from 1 to 1000 ng/ml or other peptides which are mentioned in the legends of the figures.

[1] = tested on: human mononucleated cells of the peripheral blood (PBMCs); assay: Incorporation of tritiated thymidine in PBMCs (proliferation); format: cell-based; settings: for activation response of PBMCs compared to the HARP protein: 1 ng/ml HARP, 1 μg/ml peptides (FIG. 6)
Description: The PBMCs were cultured for 7 days in RPMI culture medium containing 10% fetal calf serum in the absence of or in the presence of 1 ng/ml HARP protein or 1 μg/ml of peptides 1 or 2. The incorporation of tritiated thymidine was determined as described above.
Human mononucleated cells originating from different healthy donors were isolated from peripheral blood after centrifugation on a Ficoll-Hypaque pad (Pharmacia Biotech) in accordance with the manufacturer's instructions. The cells were washed then cultured in RPMI 1640 medium supplemented by 10% heat-inactivated fetal calf serum (56° C., 30 min), 100 units/ml of penicillin and 100 μg/ml of streptomycin. The cells were inoculated at the rate of 10^6 cells per ml in a 96-well (round bottoms) culture plate (Costar). They were cultured for 7 days in the presence or not of human recombinant HARP protein produced in E. coli at the concentration of 100 ng/ml. In the last 18 hours of culture, 1 μCi of tritiated thymidine was added to each of the wells. The radioactivity incorporated in the cell nuclei was then measured using a scintillation counter.

HUVEC cells = assay: Mitogenic activity on HUVEC cells (cell counting); format: cell-based; settings: wells coated with 100 ng/ml, 72 hours of culture, triplicate
Description: The cells used were HUVEC cells (Clonetics) used between passages 1 to 5. Each of the wells of a 48-well culture plate (Costar) was incubated for 1 night at 4° C. with a solution of HARP (100 ng/ml), of purified HARP peptide (100 ng/ml) or solely the negative control buffer. After rinsing the wells with a PBS solution, the cells were inoculated at the rate of 2×10^4 cells per cm^2 in the DMEM culture medium containing 2% of fetal calf serum. Each quantitative determination was performed in triplicate.
Induction of cellular proliferation was assessed by counting the cells after 72 hours of culture.

soleus muscle = format: in vivo, Wistar rat; settings: 1 μg injected in 50 μl into crushed rat soleus, 4 days
[2] = tested on: PBMCs treated by tetanus toxin
[3] = tested on: cytokines of inflammation (TNF-alpha, IL-1, IL-6); assay: Expression/production of the cytokines of inflammation; format: cell-based, human
[4] = tested on: PBMCs treated by an anti-CD3
IL-1β = assay: Expression of IL-1 by PBMCs (ELISA); format: cell-based, human; settings: HARP 1 to 1000 ng/ml, 3 or 7 days
Description: as §1, §2

TNF-α = assay: Expression of TNF-α by PBMCs (ELISA); format: cell-based, human; settings: HARP 1 to 1000 ng/ml, 3 or 7 days
Description: as §1, §2

[5] = tested on: lymphoid cells (PBMC culture); assay: Determination of the amplified lymphoid cell population in a PBMC culture; format: cell-based, human; settings: HARP 1 μg/ml, PBMC culture 5 days
Description: as §2, with “5” for “3 or 7”, “of” for “of variable concentrations of”, “HARP” for “HARP ranging from 1 to 1000 ng/ml”, “peptides at concentrations” for “peptides”, “each” for “the legends”, “Examples described.” for “figures.”
Table II presents the effects of the HARP molecule tested at a concentration of 1 μg/ml on the proliferation of lymphoid cells.

syndecan-3 = syndecan-3 (Rattus norvegicus, UniProt P33671); settings: read-out: apparent Kd; cited from earlier work
syndecan-3, sequence (P33671 45-442): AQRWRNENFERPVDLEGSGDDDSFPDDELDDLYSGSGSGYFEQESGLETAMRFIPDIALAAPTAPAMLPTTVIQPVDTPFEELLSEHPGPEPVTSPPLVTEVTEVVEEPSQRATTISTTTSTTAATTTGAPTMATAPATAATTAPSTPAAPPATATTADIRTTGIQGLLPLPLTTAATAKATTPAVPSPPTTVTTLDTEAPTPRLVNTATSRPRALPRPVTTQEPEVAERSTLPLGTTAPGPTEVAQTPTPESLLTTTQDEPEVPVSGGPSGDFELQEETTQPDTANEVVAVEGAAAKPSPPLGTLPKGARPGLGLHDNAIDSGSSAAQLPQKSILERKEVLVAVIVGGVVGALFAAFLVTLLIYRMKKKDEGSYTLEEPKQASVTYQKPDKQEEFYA

IL-2 = IL-2 levels after incubation of PBMCs with HARP; format: cell-based, human; settings: after incubation of PBMCs with HARP factor
NIH 3T3 cells = settings: read-out: Kd of strong affinity HARP binding sites; cited from earlier work
phosphacan = phosphacan (Rattus norvegicus, UniProt Q62656); settings: cited from earlier work
phosphacan, sequence (Q62656 25-1616 isoform Q62656-3 limits assumed): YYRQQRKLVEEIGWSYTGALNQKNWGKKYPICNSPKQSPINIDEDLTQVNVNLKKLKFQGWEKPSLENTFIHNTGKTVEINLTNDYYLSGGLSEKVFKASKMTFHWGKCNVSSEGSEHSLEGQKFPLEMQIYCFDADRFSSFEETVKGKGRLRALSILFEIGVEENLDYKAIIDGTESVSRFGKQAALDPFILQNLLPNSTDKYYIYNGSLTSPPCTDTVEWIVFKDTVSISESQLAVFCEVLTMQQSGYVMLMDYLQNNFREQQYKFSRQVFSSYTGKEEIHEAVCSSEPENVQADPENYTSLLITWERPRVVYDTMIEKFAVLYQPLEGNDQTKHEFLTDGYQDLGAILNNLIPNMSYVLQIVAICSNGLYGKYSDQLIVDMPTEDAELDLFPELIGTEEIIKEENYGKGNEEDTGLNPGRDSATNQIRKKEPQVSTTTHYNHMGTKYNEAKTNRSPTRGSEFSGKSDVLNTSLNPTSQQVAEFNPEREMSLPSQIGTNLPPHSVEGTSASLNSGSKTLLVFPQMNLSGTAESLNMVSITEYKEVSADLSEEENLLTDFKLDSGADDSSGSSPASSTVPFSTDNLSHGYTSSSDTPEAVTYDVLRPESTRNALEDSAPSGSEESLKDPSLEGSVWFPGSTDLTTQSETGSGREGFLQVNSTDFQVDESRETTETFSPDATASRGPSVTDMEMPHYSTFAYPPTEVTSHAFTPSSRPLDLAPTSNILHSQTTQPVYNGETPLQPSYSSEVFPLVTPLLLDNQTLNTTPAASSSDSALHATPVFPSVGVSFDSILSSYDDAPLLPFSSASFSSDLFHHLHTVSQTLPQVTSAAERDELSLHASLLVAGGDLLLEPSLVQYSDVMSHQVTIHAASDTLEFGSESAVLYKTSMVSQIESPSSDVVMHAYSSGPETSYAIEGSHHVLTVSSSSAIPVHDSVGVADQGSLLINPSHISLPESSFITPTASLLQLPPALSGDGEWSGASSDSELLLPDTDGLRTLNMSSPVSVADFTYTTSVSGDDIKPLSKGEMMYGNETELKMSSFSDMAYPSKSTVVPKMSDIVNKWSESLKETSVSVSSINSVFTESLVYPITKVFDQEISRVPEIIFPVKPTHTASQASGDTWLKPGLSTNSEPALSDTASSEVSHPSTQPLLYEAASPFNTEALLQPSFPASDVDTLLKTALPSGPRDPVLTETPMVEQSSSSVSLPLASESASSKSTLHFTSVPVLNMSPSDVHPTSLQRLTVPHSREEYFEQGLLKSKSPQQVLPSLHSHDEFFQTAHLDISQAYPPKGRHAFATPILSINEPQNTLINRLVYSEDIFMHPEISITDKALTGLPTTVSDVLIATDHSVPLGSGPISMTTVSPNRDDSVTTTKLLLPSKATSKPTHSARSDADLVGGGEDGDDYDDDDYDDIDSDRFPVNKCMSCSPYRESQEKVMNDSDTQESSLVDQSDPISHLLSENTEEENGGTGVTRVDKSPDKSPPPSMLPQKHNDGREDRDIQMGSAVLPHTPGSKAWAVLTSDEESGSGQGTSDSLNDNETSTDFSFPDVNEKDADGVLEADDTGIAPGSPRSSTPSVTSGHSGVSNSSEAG

[6] = peptides, 7 days of incubation (FIG. 10)
[7] = added to PBMCs, result not shown
[8] = 7 days, anti-CD3 1/100, HARP 1 ng/ml

NH2-AESKKKKKEGKKQEKMLD-COOH (H-AESKKKKKEGKKQEKMLD-OH) [Peptide 2, peptide corresponding to the terminal COOH part of HARP; 18 amino acids]
expression of IL-6 (IL-6; [6]): capable of stimulating the expression of IL-6
activation response of PBMCs compared to the HARP protein ([1]; 7 days): close to two times higher

GKKEKPEKKVKKSD [HARP peptide, N terminal peptide (amino acids 1-14) of human HARP obtained by recombination in a eukaryote expression system]
Number of cells (HUVEC cells): 12,000 ± 14,000

NH2-AEAGKKEKPEKKVKKSDCGEW-COOH (H-AEAGKKEKPEKKVKKSDCGEW-OH) [Peptide 1]
expression of IL-6 (IL-6; [6]): capable of stimulating the expression of IL-6
number of mononucleated cells in treated muscle versus peptide 2 or PBS (soleus muscle): much higher
activation response of PBMCs compared to the HARP protein ([1]; 7 days): close to half that of HARP
activation response of PBMCs compared to the control ([1]; 7 days, 1 μg/ml peptide (FIG. 6)): more than two times higher

tetanus toxin [reference compound]
incorporated tritiated thymidine [2]: 43,000±500 cpm
stimulation of incorporation of tritiated thymidine in relation to the control [2]: 71 times

angiogenin: molecule presenting a homologous protein domain [reference compound]
expression of the inflammatory cytokines [3, 7]: Augmentation of the expression

B1: HARP: angiogenic growth factor; human recombinant HARP protein produced in E. coli (protein, UniProt P21246 33-168, looked up)
Pleiotrophin: GKKEKPEKKVKKSDCGEWQWSVCVPTSGDCGLGTREGTRTGAECKQTMKTQRCKIPCNWKKQFGAECKYQFQAWGECDLNTALKTRTGSLKRALHNAECQKTVTISKPCGKLTKPKPQAESKKKKKEGKKQEKMLD
incorporated tritiated thymidine [4, 8]: 3500 cpm
stimulation of incorporation of tritiated thymidine in relation to the control [4, 8]: 5.8 times
incorporation of thymidine ([4]; HARP 10 and 100 ng/ml in the presence of anti-CD3): a weaker and a very low incorporation
cellular mortality ([4]; HARP alone at 10 and 100 ng/ml): not seen
expression of IL-1β (IL-1β): capable of inducing in a dose-dependent manner
expression of IL-6 (IL-6; HARP 1 to 1000 ng/ml, 3 or 7 days): capable of inducing in a dose-dependent manner
expression of the inflammatory cytokines ([3]; HARP molecule denatured): No expression
stimulation of the production of cytokines of inflammation ([3]; in vitro and in vivo): more than 100 times
Number of cells (HUVEC cells): 129,000 ± 26,000
expression of TNF-α (TNF-α): capable of inducing in a dose-dependent manner
CCD2 positive cells [5]: 95%
CCD4+ CD45RA+ cells [5]: 15%
CCD4+ CD45RO+ cells [5]: 49%
CCD4 positive cells [5]: 68%
CCD8 positive cells [5]: 22%
CCD16/56 positive cells [5]: 18%
CCD19 positive cells [5]: 4%
CCD25 positive cells [5]: 47%
CCD45RA positive cells [5]: 34%
CCD45RO positive cells [5]: 64%
Variation of CCD4+ CD45RA+ versus control [5]: −31%
Variation of CCD4+ CD45RO+ versus control [5]: +133%
Variation of CCD45RO versus control [5]: +113%
RA/RO (CCD4+ CD45RA+ / CCD4+ CD45RO+) ([5]; CD4+ cells): 0.3 ratio
RA/RO (CCD45RA / CCD45RO) ([5]; all cells): 0.5 ratio
Kd (syndecan-3): 0.8 nM
concentration at which active on the proliferation of lymphocytes [1]: ~10 pM
increase in the number of cells in relation to the untreated control ([1]; HARP 100 ng/ml, experiment no. 7): 2.9 times
HARP concentration at which maximum effect is attained ([1]; dose-response 0.1 to 500 ng/ml): 1 ng/mL
IL-2 levels (IL-2): no increase
Kd (NIH 3T3 cells): 0.6 nM
cell death (HIV; HARP 100 ng/ml, PBMCs from an AIDS patient): noteworthy cell death
HARP concentration at which production of viral antigen p24 is maximal (HIV; PBMCs from an AIDS patient (CD4<200/mm^3), 3 days, HARP 0.1-100 ng/ml): 1 ng/mL
cell mortality [2]: high cell mortality
incorporated tritiated thymidine ([2]; 7 days): 3500±200 cpm
stimulation of incorporation of tritiated thymidine in relation to the control ([2]; 7 days): 5.8 times
Kd (phosphacan; read-out: Kd, binding sites of strong affinity): 0.25 nM
Kd (phosphacan; read-out: Kd, binding sites of weak affinity): 3 nM

B2: tat protein: molecule presenting a homologous protein domain (protein, UniProt P04608 1-86, looked up)
Protein Tat: MEPVDPRLEPWKHPGSQPKTACTNCYCKKCCFHCQVCFITKALGISYGRKKRRQRRRAHQNSQTHQASLSKQPTSQPRGDPTGPKE
expression of the inflammatory cytokines [3, 7]: Augmentation of the expression

B3: MK: protein that exhibits 50% homology in amino acids with HARP (protein, UniProt P21741 21-143, looked up)
Midkine: VAKKKDKVKKGGPGSECAEWAWGPCTPSSKDCGVGFREGTCGAQTQRIRCRVPCNWKKEFGADCKYKFENWGACDGGTGTKVRQGTLKKARYNAQCQETIRVTKPCTPKTKAKAKAKKGKGKD
stimulation of tritiated thymidine incorporation in PBMCs ([1]; MK 0.1 to 500 ng/ml): no induction; also recorded: No stimulation
